# Experimental data from patent US20170051285A1, “COMPOSITIONS AND METHODS OF USING SAME FOR REDUCING RESISTANCE TO MOSQUITO LARVICIDES” (priority 2014, published 2017).
# “Also recorded” adds a separate entry of the source. Where two headings read alike, the source gives them in different places.
# Tests used:
# Assay type in all cases: in vivo, Aedes aegypti
# [1] = tested on: Ae. aegypti female mosquitoes (Rockefeller and Rio de Janeiro strains); assay: CDC bottle bioassay with deltamethrin, adult females; settings: 2 μg/mL deltamethrin; for mortality at 2 µg/mL: Aedes aegypti, read-out: mortality at diagnostic dosage
# Description: FIGS. 14A-C are graphs illustrating the dose-response curves for 3- to 5-day-old Aedes aegypti female mosquitoes on insecticide-susceptible Rockefeller strain (FIG. 14A) and on insecticide-resistant Rio de Janeiro strain (FIG. 14B). Mosquitoes were exposed to different concentrations of deltamethrin in 250-mL glass bottles for up to 24 hours and the percentage of mortality for each time point is shown. FIG. 14C, comparison of the mortality rates of female mosquitoes from Rockefeller (Rock) and Rio de Janeiro (RJ) strains exposed to 2 μg/mL of deltamethrin for different time-points. Data represent mean values of three replicates with standard deviation.
# Bottles were prepared following the Brogdon and McAllister (1998) protocol [Brogdon and McAllister (1998) Emerg Infect Dis 4:605-613]. Fifteen-twenty non-blood-fed females from each site were introduced in 250 mL glass bottles impregnated with different concentrations of deltamethrin (Sigma-Aldrich) in 1 ml acetone. Each test consisted of four impregnated bottles and one control bottle. The control bottle contained acetone with no insecticide. At least three tests were conducted for each insecticide and population. Immediately prior to use, all insecticide solutions were prepared fresh from stock solutions. At 15, 30 and 45 min intervals, the number of live and dead mosquitoes in each bottle was recorded. The mortality criteria included mosquitoes with difficulties flying or standing on the bottle's surface. Mosquitoes that survived the appropriate dose for insecticide were considered to be resistant [Brogdon and McAllister (1998), supra].
# Therefore, it was concluded that 36.05% of the mosquitoes in this population (RJ) are resistant to deltamethrin.
# [2] = tested on: Ae. aegypti larvae (Rockefeller and Rio de Janeiro strains); assay: Temephos larval susceptibility bioassay (WHO methodology)
# Description: (§1) First (L1), Second (L2) or Third (L3) instar larvae were treated (in groups of 100 larvae) in a final volume of 3 mL of autoclaved water with sodium channel (AAEL008297), PgP (AAEL010379), Ago3 (AAEL007823), and Aub (AAEL007698) dsRNA (0.5 μg/μL), or AAEL005112, AAEL003446, AAEL007815 and AAEL002202 dsRNA (0.1 μg/μL). The control group was kept in 3 ml sterile water only. Larvae were soaked in the dsRNA solutions for 24 hours at 27° C., and were then transferred into new containers (200 larvae/1000 mL of chlorine-free tap water), which were also maintained at 27° C., and provided […] lab dog/cat diet (Purina Mills) suspended in water as a source of food on a daily basis. After soaking procedure, the larvae were reared until third instar and divided in […] with 10-20 larvae in each cup (final volume of 100 mL) or were divided immediately after soaking. Six replicas were treated with the lethal concentration 50 (0.00573 ppm) of temephos and 2 replicas with ethanol only (control group). Mortality was recorded after 24 and 48 hours. See Flowcharts 1 and 2 (FIGS. 1 and 2, respectively).
# Susceptibility tests were carried out according to the methodology proposed by the World Health Organization (WHO). In order to characterize the status of Temephos resistance in Ae. aegypti (Rio de Janeiro) strain, the present inventors first determined the lethal concentration LC99 (concentration able to kill 99% of the larvae) using the susceptible strain (Rockfeller) (see FIG. 5: 0.01401 ppm). Then, bioassays with the Rio de Janeiro strain were performed using a diagnostic concentration of 0.0282 ppm of Temephos, which corresponded to twice the lethal concentration, 99% (LC99), determined for this susceptible strain. According to WHO, when the field population is treated with the diagnostic dose and the mortality rates are equal to or higher than 98%, the population is considered susceptible, between 80% and 98%, with alterations in susceptibility, and below 80%, resistant [WHO (1981) WHO/VBC/81.807]. […]
# [3] = tested on: Argonaute-3 (AAEL007823) mRNA; assay: qPCR of Ago-3 mRNA after dsRNA treatment of larvae
# Description: as §1
# (§2) Approximately 1000 ng first-strand cDNA obtained as described previously was used as template. The qPCR reactions were performed using SYBR® Green PCR Master Mix (Applied Biosystems) following the manufacturer's instructions. […] Raw quantification cycle (Cq) values normalized against those of the tubulin and S7 standards were then used to calculate the relative expression levels in samples using the 2^−ΔΔCt method previously described [Livak & Schmittgen (2001) Methods. […]
# (§3) Approximately 1000 ng first-strand cDNA obtained as described previously was used as template. […] Raw quantification cycle (Cq) values normalized against those of the tubulin and S7 standards were then used to calculate the relative expression levels in samples using the 2^−ΔΔCt method [Livak & Schmittgen, (2001) Methods. […]
# [4] = tested on: A. aegypti 3rd instar larvae, Rockefeller strain; assay: Larvae feeding with food-containing dsRNA and bioassay with diflubenzuron; settings: diflubenzuron 2.5 μg/L
# Description: FIG. 9A, 3rd instar larvae of Rockefeller strain were exposed to diflubenzuron (DBZ) pestanal larvicide (2.5 μg/L) in plastic cups containing 100 mL of dechlorinated tap water and fed simultaneously with dsRNA-containing food. Larval mortality was determined each 3 days. FIG. 9B, larvae were soaked with Sodium channel dsRNAs and exposed to diflubenzuron as described in FIG. 9A. Effects of diflubenzuron on adult emergence is shown as the percentage of emergence inhibition (100-100(T/C), where T is emergence (%) in DBZ-treated groups and C is emergence (%) in control groups. *p<0.01 (ANOVA, bar=S.D, n=4).
# 3rd instar larvae of Rockefeller strain were exposed to diflubenzuron (DBZ) pestanal larvicide (2.5 μg/L) in plastic cups containing 100 mL of dechlorinated tap water and fed simultaneously with dsRNA-containing food targeting PgP (FIG. 10A) or dsRNA-containing food targeting Sodium channel (FIG. 10B). Larval mortality was determined each 3 days. […]
# Third instar larvae (in groups of 10 larvae) were exposed to one concentration (2.5 μg/L) of diflubenzuron pestanal (Sigma) in a final volume of 100 mL of chlorine-free tap water. […] The inhibition of emergence (%) was calculated according to the following formula: 100-100(T/C) where T is percent emergence in treated groups and C is percent emergence in control groups [Mulla et al. (1974) Proc. Papers Calif. […]
# [5] = tested on: P-glycoprotein (AAEL010379) mRNA; assay: qPCR of P-glycoprotein mRNA after dsRNA treatment of larvae
# Description: as §1, §2, §3
# [6] = 24 and 48 hours after end of 24 hour soaking of 3rd instar larvae
# [7] = soaked as third instar larvae, reared until adult stage
molecule,measurement,setting,value
CC1(C)[C@H](C(=O)O[C@H](C#N)c2cccc(Oc3ccccc3)c2)[C@@H]1C=C(Br)Br [deltamethrin],mortality at 2 µg/mL,[1]; Rio de Janeiro strain,64%
same,mortality at 2 µg/mL,[1]; Rockfeller strain,100%
same,mosquitoes of the population resistant to deltamethrin,[1]; Rio de Janeiro (RJ) population,36.05%
COP(=S)(OC)Oc1ccc(Sc2ccc(OP(=S)(OC)OC)cc2)cc1 [Temephos],mortality at 0.0282 ppm,"[2]; Aedes aegypti, read-out: mortality at diagnostic concentration",60%
same,lethal concentration 50,"[2]; LC50 used to treat third instar larvae, strain not stated",0.00573 ppm
same,lethal concentration LC99 (concentration able to kill 99% of the larvae),[2]; susceptible strain (Rockfeller),0.01401 ppm
"Ago-3 dsRNA: dsRNA targeting Ae. aegypti Argonaute-3 gene AAEL007823, SEQ ID NO: 185 (nucleic acid, double stranded RNA) CCCCGTCGACGGCCACGAAGTTACGATCAAGATCATTTACAAGCGCAAACAGCGAATGAGCGAGAACATTCAATTCTACAACATTCTCTTCCAACGCATTATGAAAGTCCTGAAGATGGTCGAGATGGGTCGTAAGAACTTTGACCCCTCGGCCCCGAAACTGATTCCGCAGCATCGTCTGGAGATCTGGCCGGGATACGTTAGCGCTGTGGACGAATATGAGGGCGGCTTGATGTTGAATCTCGACGTGTCCCATCGTGTGCTGCTCCAGACGACGGTTTTGGATCACATCCGAACGCTGGCAAGGGCCAATCCCCAAGATTACAAAAACATGGCCACCAAATCGCTGCTGGGAGCCGTTATATTGACCCGA",Ago3 mRNA levels after the end of dsRNA treatment (FIG. 19B),[3]; [6],decreased mRNA levels
same,Ago-3 mRNA expression by qPCR (FIG. 8B),"[3]; RJ third instar larvae soaked 24 hours, after treatment with Temephos, versus water",induced gene silencing; also recorded: reduction in the mRNA levels
same,Ago3 mRNA expression in adult mosquitoes (FIG. 20B),[3]; [7],reached normal levels
"P-glycoprotein dsRNA: dsRNA targeting Ae. aegypti P-glycoprotein gene AAEL010379, SEQ ID NO: 184 (nucleic acid, double stranded RNA) TGGAAAAGTTGACATTGACGGGATCACGACAACTGATTTCCAGCTTGGCCGCATACGTTCACAAATGGGTCTCGTATCGCAAGAACCTGTTCTGTTTGATCGCACCATCGCGGAAAATATTGCTTATGGTGACAACACTCGCGAGATAAGCATGCCGGAGATAATCGAGGCATCCAAAATGGCAAACATTCACGAATTCATCGTCAATCTACCGAAGGGGTATGACACTAGCCTAGGAACCAAAGGAGCTCAATTGTCTGGTGGCCAAAAGCAACGTATTGCTATAGCTCGTGCTTTGGTTAGAAATCCACGAATCC",viability of mosquito larvae 4 days after treatment with DBZ (FIGS. 10A-B),[4]; fed agarose cubes with 20 μg dsRNA once a day for 4 days,reduced significantly the viability of mosquito larvae
same,susceptibility to diflubenzuron: larvae mortality and adult emergence (FIGS. 9A-B),[4]; fed dsRNA-containing food simultaneously,increases its susceptibility to diflubenzuron insecticide
same,PgP mRNA levels after the end of dsRNA treatment (FIG. 19A),[5]; [6],decreased mRNA levels
same,P-glycoprotein mRNA expression by qPCR (FIG. 7),"[5]; larvae soaked 24 hours in dsRNA, temephos bioassay at third instar, versus water",induced gene silencing; also recorded: decrease in mRNA expression level
same,PgP mRNA expression in adult mosquitoes (FIG. 20A),[5]; [7],reached normal levels
